Data on four compounds can be found in patent publication US20260055155A1, “INCRETIN ANALOG AND USE THEREOF” (SHANGHAI MINWEI BIOTECHNOLOGY CO., LTD, priority 2023, published 2026).

Data set [1] can be described thus: stability of polypeptide in serum (GIP activity read-out with CHOK1-GIPR cells). Type of data set: in vitro ADME, cynomolgus monkey. To be noted: for Activity ratio (%, Relative to the sample at 0 h): 100 μg/ml in cynomolgus monkey serum, GIP activity. Here is the method:
Polypeptide 1 (SEQ ID NO. 1), polypeptide 3 (SEQ ID NO. 3) and control LY3437943 were diluted to 100 μg/ml with cynomolgus monkey serum, divided into 3 pieces with 200 μl/piece, respectively. One sample was placed in a −80° C. refrigerator as a zero reference, and the other two samples were placed in a 37° C. incubator and moved into a −80° C. refrigerator after 24 hours and 72 hours respectively. […] The activity changes of different samples after being placed for different periods of time were compared.

A further data set addresses T1, GIP receptor (human) (UniProt P48546).
T1 sequence (looked up): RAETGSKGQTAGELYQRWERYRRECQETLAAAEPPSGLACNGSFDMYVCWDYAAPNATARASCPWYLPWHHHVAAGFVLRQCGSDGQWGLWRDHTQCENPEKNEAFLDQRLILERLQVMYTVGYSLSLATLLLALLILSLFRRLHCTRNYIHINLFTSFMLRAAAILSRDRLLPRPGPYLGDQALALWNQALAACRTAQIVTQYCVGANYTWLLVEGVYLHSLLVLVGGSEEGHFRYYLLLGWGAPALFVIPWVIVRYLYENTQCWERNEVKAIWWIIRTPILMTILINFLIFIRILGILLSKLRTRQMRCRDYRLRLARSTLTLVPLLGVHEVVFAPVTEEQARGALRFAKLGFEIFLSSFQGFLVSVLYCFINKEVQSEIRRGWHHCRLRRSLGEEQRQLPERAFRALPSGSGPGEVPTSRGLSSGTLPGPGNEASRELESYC
Put plainly: cell-based or functional assay.

In data set [2] the target is human GLP-1 receptor (human) (UniProt P43220). Put plainly: cell-based or functional assay.
The next data set has as its target GCG receptor (UniProt P47871). Briefly: cell-based or functional assay.

Entries after “also recorded” stand apart in the source; their conditions may differ. Numbered stars: 1 amine (or outer) side, 2 acyl side, 3 side chain; on linkers, the order of the positions; unused ones are H or OH. Square brackets hold non-standard residues; d marks the D form. Side chains are listed from the residue outwards. Peptide text beside a SMILES is read from it. * marks the point of attachment. C20 diacid = O=C(O)CCCCCCCCCCCCCCCCCCC(=O)*; γGlu = O=C(O)[C@H](CCC(=O)[*:2])N[*:1]; AEEA = NCCOCCOCC(=O)O; Aib = CC(C)(N)C(=O)O

Consider `CC[C@H](C)[C@H](NC(=O)[C@H](CCCCNC(=O)COCCOCCNC(=O)CC[C@H](NC(=O)CCCCCCCCCCCCCCCCCCC(=O)O)C(=O)O)NC(=O)[C@H](CC(=O)O)NC(=O)[C@H](CC(C)C)NC(=O)[C@H](CC(C)C)NC(=O)[C@@H](NC(=O)[C@H](CO)NC(=O)[C@H](Cc1ccc(O)cc1)NC(=O)[C@H](CC(=O)O)NC(=O)[C@H](CO)NC(=O)[C@@H](NC(=O)[C@H](Cc1ccccc1)NC(=O)[C@@H](NC(=O)CNC(=O)[C@H](CCC(N)=O)NC(=O)C(C)(C)NC(=O)[C@@H](N)Cc1c[nH]cn1)[C@@H](C)O)[C@@H](C)O)[C@@H](C)CC)C(=O)N[C@@H](C)C(=O)N[C@@H](C)C(=O)N[C@@H](CCC(N)=O)C(=O)N[C@@H](C)C(=O)N[C@@H](Cc1ccccc1)C(=O)N[C@H](C(=O)N[C@@H](CCC(=O)O)C(=O)N[C@@H](Cc1c[nH]c2ccccc12)C(=O)N[C@@H](CC(C)C)C(=O)N[C@H](C(=O)N[C@@H](C)C(=O)NCC(=O)NCC(=O)N1CCC[C@H]1C(=O)N[C@@H](CO)C(=O)N[C@@H](CO)C(=O)NCC(=O)N[C@@H](C)C(=O)N1CCC[C@H]1C(=O)N1CCC[C@H]1C(=O)N1CCC[C@H]1C(=O)N[C@@H](CO)C(N)=O)[C@@H](C)CC)[C@@H](C)CC` [Polypeptide 1] (H-H[Aib]QGTFTSDYSILLDK([AEEA-γGlu-C20 diacid])IAAQAFIEWLIAGGPSSGAPPPS-NH2; N-terminus and C-terminus assumed), for which the “stability in serum (in words)” value in data set [1] (cynomolgus monkey serum, 37° C.) was “higher than that of polypeptide 3; also recorded: significantly improve polypeptide stability”. Besides, the “Activity ratio (%, Relative to the sample at 0 h)” value in data set [1] (incubation time at 37° C. 0 h (zero reference)) is 100%; in data set [1] (incubation time at 37° C. 72 h) it was 67.13%.
The compound “GIP (from UniProt P09681 52-93) (ligand)” had an EC50 (nmol/L), reporter gene in CHO-K1 cells with GIP receptor (human) of 0.059 nmol/L.
On to “GLP-1 (from UniProt P01275 92-128) (ligand)”, for which the EC50 (nmol/L), CRE-luciferase reporter in CHO-K1 cells in data set [2] is 1.95 nmol/L.
As to LY3437943 (peptide), the Results of activity in human serum albumin system (GLP-1R) in data set [2] worked out at 540. The same compound showed a Results of activity in human serum albumin system (GCGR) with GCG receptor of 26. The Results of activity in human serum albumin system (GIPR) with GIP receptor (human) stood at 3.29.
